Positions count from the first letter of the chain named. * marks the point of attachment. CH2Cl = ClC*

The record followed here is US20110206704A1, “Methods and compositions for modulating hepatocyte growth factor activator” (Genentech, Inc., priority 2009, published 2011).

In assay [1] the target is T1, HGFA (Homo sapiens, UniProt Q04756).
T1 construct: His6 behind an AAA linker) (C); made in house; host or cells: baculovirus - insect cell expression system
T1 sequence (Q04756 373-655): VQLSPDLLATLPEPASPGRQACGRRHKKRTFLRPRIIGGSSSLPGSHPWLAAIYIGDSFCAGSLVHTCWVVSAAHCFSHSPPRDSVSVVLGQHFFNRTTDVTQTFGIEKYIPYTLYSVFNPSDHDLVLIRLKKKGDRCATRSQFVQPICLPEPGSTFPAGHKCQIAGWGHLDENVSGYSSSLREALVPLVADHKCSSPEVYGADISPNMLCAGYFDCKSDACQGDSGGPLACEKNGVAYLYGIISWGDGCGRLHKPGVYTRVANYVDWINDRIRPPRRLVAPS
In words: Ab40 binding to HGFA in the presence of active site inhibitors (surface plasmon resonance). To be noted: active site inhibitor present; result in words. An excerpt: FIG. 3: Effects of active site inhibitors on antibody binding to HGFA. (a-b, e-f) Surface plasmon resonance (BIAcore) measurements of binding to immobilized antibodies, Ab40 (a-b) or Ab40.ΔTrp (e-f), after co-injection of HGFA (a,e) or HGFA-KQLR (b, f) complex (“KQLR” disclosed as SEQ ID NO: 21). (c) Competition binding (BIAcore) of HGFA to immobilized Ab40 in presence of different concentrations of KD1. (d) Competition binding ELISA measuring binding of HGFA to biotinylated KD1 in the presence of increasing antibody concentrations.
Antibody reformatting and determination of dissociation rate constants to HGFA: Anti-HGFA Fabs were reformatted into human IgG1 by cloning the VL and VH regions of individual clones into LPG3 and LPG4 vector, respectively (Liang et al, 2007). The full-length antibodies were transiently expressed in Chinese Hamster Ovary cells and purified on a protein-A column. […] Association rates (kon) and dissociation rates (koff) were obtained by using a simple one-to-one Langmuir binding model (BIAEvaluation) and the equilibrium dissociation constants (KD) were calculated (koff/kon). […] The values of Req (20-80% of Rmax) were calculated and plotted individually against C (concentration of HGFA or HGFA-KQLR (“KQLR” disclosed as SEQ ID NO: 21)) using BIAEvaluation Software to determine KD at the steady state analysis. […]

Assay [2] has as its target HGFA (Val373-Ser655 plus tag …) (human) (UniProt Q04756). In words: SPR (BIAcore), IgG captured by anti-human IgG, HGFA injected.
Assay [3] shares this target. Put plainly: cell-based or functional assay.
Assay [4] deals with T2, HGFA (Val373-Ser655 plus tag …) (human, UniProt Q04756 373-655).
T2 sequence: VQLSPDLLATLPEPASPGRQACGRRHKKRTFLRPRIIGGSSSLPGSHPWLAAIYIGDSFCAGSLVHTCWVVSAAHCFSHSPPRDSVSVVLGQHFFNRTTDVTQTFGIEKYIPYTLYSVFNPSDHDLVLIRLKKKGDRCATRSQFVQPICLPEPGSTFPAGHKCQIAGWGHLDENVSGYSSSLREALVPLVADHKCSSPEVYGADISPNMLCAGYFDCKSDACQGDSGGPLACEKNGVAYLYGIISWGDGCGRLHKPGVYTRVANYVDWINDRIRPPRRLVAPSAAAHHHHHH
Put plainly: cell-based or functional assay.

The target in assay [5] is T2, HGFA (Val373-Ser655 plus tag …). Put plainly: competition ELISA: plate coated with HGFA, incubated with increasing Ab40, then 1 nM biotinylated KD1 (blocked ligand) detected with streptavidin-HRP.
For assay [6] the target is unchanged. In words: SPR (BIAcore), IgG captured by anti-human IgG, HGFA injected.
The target in assay [7] is T3, HGFA-KQLR complex (human, UniProt Q04756 373-655, N-terminal acetyl; C-terminal chloromethyl ketone, reacted with Ser195 and His57 of HGFA; Ser195 and His57 (chymotrypsinogen numbering) covalently linked to Ac-KQLR-cmk).
T3 construct: Made by incubating HGFA with a two fold molar excess of Ac-KQLR-cmk for 2 hours, then size exclusion chromatography
In words: SPR (BIAcore).

Assay [8] has as its target T2, HGFA (Val373-Ser655 plus tag …). Put plainly: SPR (BIAcore).
The target in assay [9] is T3, HGFA-KQLR complex. Put plainly: SPR (BIAcore), IgG captured by anti-human IgG, HGFA-KQLR complex injected.
Assay [10] concerns the target T2, HGFA (Val373-Ser655 plus tag …). In words: SPR (BIAcore), steady state affinity, IgG captured, HGFA injected.
The target in assay [11] is T3, HGFA-KQLR complex. Put plainly: SPR (BIAcore), steady state affinity, IgG captured, HGFA-KQLR complex injected.

For “Ac-KQLR-chloromethyl ketone (Ac-KQLR-CH2Cl; SMILES CC(=O)N[C@@H](CCCCN)C(=O)N[C@@H](CCC(N)=O)C(=O)N[C@@H](CC(C)C)C(=O)N[C@@H](CCCNC(=N)N)C(=O)CCl) [Ac-KQLR-cmk]”, the “interference with binding of Ab40 to HGFA” value in [1] is reported as “interfered”.

Consider `N=C(N)c1ccccc1` [Benzamidine], for which the “interference with binding of Ab40 to HGFA” value in [1] is listed as “did not interfere”.

B1: Ab39 (antibody, from a related filing, human IgG1, V domains shown)
VH: EVQLVESGGGLVQPGGSLRLSCAASGFTFNGTYIHWVRQAPGKGLEWVGGIYPAGGATYYADSVKGRFTISRDNSKNTLYLQMNSLRAEDTAVYYCAKWWAWPAFDYWGQGTLVTVSS
VL: DIQMTQSPSSLSASVGDRVTITCRASQDVSTAVAWYQQKPGKAPKLLIYSASFLYSGVPSRFSGSGSGTDFTLTISSLQPEDFATYYCQQSYTTPPTFGQGTKVEIKR
As to B1, in [2], the Kd turned out to be 10.3 nM, the koff amounted to 0.0053 s⁻¹ and the kon came to 520000 M⁻¹ s⁻¹. Besides, in assay [3], the Km^app of S-2266 hydrolysis at 1 µM Ab39 (control Km=0.25 mM) was found to be 910 µM and the Vmax^app of S-2266 hydrolysis at 1 µM Ab39 (control Vmax=0.99 µM pNA/min) amounted to 0.97 µM pNA/min.

B2: Ab40 (antibody, V domains shown)
VH: B1 VH with F29I, R72A, N74T, L79A
VL: B1 VL with Y92N, T93R, T94A, P96A
Consider B2, for which, in assay [4], the “IC50 (read off the curve), HGFA fractional activity vi/vo on S-2266” value is approximately 8 nM. For the same molecule, in [5], the “IC50 (read off the curve)” value was approximately 1 nM. Besides, in assay [6], the Kd was found to be 0.16 nM, the koff is 0.000175 s⁻¹ and the kon was found to be 1.08e+06 M⁻¹ s⁻¹. Moreover, in assay [7], the “fold decrease in affinity compared to HGFA” value came out at 8 fold. The “fold improvement in binding affinity over Ab39” value in assay [8] is 64 fold. Further, in assay [9], the affinity, expressed as Kd, was 1.35 nM; the koff came out at 0.00043 s⁻¹; the kon is 320000 M⁻¹ s⁻¹.

B3: Ab40.ΔTrp (antibody, V domains shown)
VH: EVQLVESGGGLVQPGGSLRLSCAASGFTINGTYIHWVRQAPGKGLEWVGGIYPAGGATYYADSVKGRFTISADTSKNTAYLQMNSLRAEDTAVYYCAKWAWPAFDYWGQGTLVTVSS
VL: B1 VL with Y92N, T93R, T94A, P96A
Regarding B3, the Kd in assay [10] turned out to be 150 nM; in assay [11] it was 161 nM.
